Key:
purified protein [1] = substrate: C[C@@H](O)C(=O)O; assay: purified protein; format: biochemical, Lactiplantibacillus plantarum; conditions: PBS pH 7.4, 35°C, 2.13 µM enzyme, racemization to L-lactate
purified protein [2] = substrate: C[C@H](O)C(=O)O; assay: purified protein; format: biochemical, Lactiplantibacillus plantarum; conditions: PBS pH 7.4, 35°C, 2.13 µM enzyme, racemization to D-lactate

B1: LarALp (Lactiplantibacillus plantarum WCFS1) (protein)
chain: VAIDLPYDKRTITAQIDDENYAGKLVSQAATYHNKLSEQETVEKSLDNPIGSDKLEELARGKHNIVIISSDHTRPVPSHIITPILLRRLRSVAPDARIRILVATGFHRPSTHEELVNKYGEDIVNNEEIVMHVSTDDSSMVKIGQLPSGGDCIINKVAAEADLLISEGFIESHFFAGFSGGRKSVLPGIASYKTIMANHSGEFINSPKARTGNLMHNSIHKDMVYAARTAKLAFIINVVLDEDKKIIGSFAGDMEAAHKVGCDFVKELSSVPAIDCDIAISTNGGYPLDQNIYQAVKGMTAAEATNKEGGTIIMVAGARDGHGGEGFYHNLADVDDPKEFLDQAINTPRLKTIPDQWTAQIFARILVHHHVIFVSDLVDPDLITNMHMELAKTLDEAMEKAYAREGQAAKVTVIPDGLGVIVK
notes: co-expressed with L. plantarum LarB, LarC, LarE in E. coli BL21(DE3) (Duet, pAT035/pAT038)
In the case of B1, the Km (purified protein [1]) is reported as 23 ± 12 mM, the kcat (purified protein [1]) is reported as 185 ± 12 s⁻¹ and the Km (purified protein [2]) is reported as 32 ± 10 mM. The kcat (purified protein [2]) was 179 ± 25 s⁻¹.
